Values of other authors, collected in publication doi:10.1101/429795.

Molecular target: Cys164 (UniProt position 164, MYQQGCFAGGT)
Assay: chemical modification

Substance: Chalcone synthase (MsCHS; CHS2) (Medicago sativa)
- pKa: 5.5
